Results: paper PMC8256087

Target: SecYEG(148/298) labeled with Cy3 and Atto647N, embedded in nanodiscs (UniProt P0AGA2)
Test: not stated; ratio of YidC to SecY in nanodiscs prepared with YidC at a concentration equal to that of SecYEG (SI Appendix, Fig. S9A)

stoichiometry N: 1 YidC:SecY
B1: YidC (natural protein)
chain: MDSQRNLLVIALLFVSFMIWQAWEQDKNPQPQAQQTTQTTTTAAGSAADQGVPASGQGKLISVKTDVLDLTINTRGGDVEQALLPAYPKELNSTQPFQLLETSPQFIYQAQSGLTGRDGPDNPANGPRPLYNVEKDAYVLAEGQNELQVPMTYTDAAGNTFTKTFVLKRGDYAVNVNYNVQNAGEKPLEISSFGQLKQSITLPPHLDTGSSNFALHTFRGAAYSTPDEKYEKYKFDTIADNENLNISSKGGWVAMLQQYFATAWIPHNDGTNNFYTANLGNGIAAIGYKSQPVLVQPGQTGAMNSTLWVGPEIQDKMAAVAPHLDLTVDYGWLWFISQPLFKLLKWIHSFVGNWGFSIIIITFIVRGIMYPLTKAQYTSMAKMRMLQPKIQAMRERLGDDKQRISQEMMALYKAEKVNPLGGCFPLLIQMPIFLALYYMLMGSVELRQAPFALWIHDLSAQDPYYILPILMGVTMFFIQKMSPTTVTDPMQQKIMTFMPVIFTVFFLWFPSGLVLYYIVSNLVTIIQQQLIYRGLEKRGLHSREKKKS
